Data published in publication doi:10.1101/2024.10.26.620377 (bioRxiv, 2024).

Tests used:
[1] = biological target: GPR52 H8-A mutant, receptor-RLuc8 (human) (UniProt Q9Y2T5); assay: FRET or BRET
[2] = biological target: GPR52 H8-A mutant, receptor-RLuc8 (human) (UniProt Q9Y2T5)
[3] = biological target: T1, GPR52 (wild-type), receptor-RLuc8 BRET biosensor (human, UniProt Q9Y2T5 1-361); assay: FRET or BRET
[4] = biological target: T1, GPR52 (wild-type), receptor-RLuc8 BRET …; assay: FRET or BRET; remark: listed apart in the source

Molecule	% Emax of BRET, unliganded, relative to wild-type [1] [% Emax]	Tango assay, constitutive β-arrestin2 recruitment, % Emax relative to wild-type [2] [% Emax]	% Emax of BRET, unliganded, relative to the GLP-1R full response [3] [% Emax]	% Emax of BRET, agonist-induced, relative to wild-type [1] [% Emax]	% Emax of BRET, agonist-induced, relative to the GLP-1R full response [4] [% Emax]
β-arrestin2-GFP2 (from UniProt P32121 1-409) (natural protein)	451	300			
β-arrestin1-GFP2 (natural protein) MGDKGTRVFKKASPNGKLTVYLGKRDFVDHIDLVDPVDGVVLVDPEYLKERRVYVTLTCAFRYGREDLDVLGLTFRKDLFVANVQSFPPAPEDKKPLTRLQERLIKKLGEHAYPFTFEIPPNLPCSVTLQPGPEDTGKACGVDYEVKAFCAENLEEKIHKRNSVRLVIRKVQYAPERPGPQPTAETTRQFLMSDKPLHLEASLDKEIYYHGEPISVNVHVTNNTNKTVKKIKISVRQYADICLFNTAQYKCPVAMEEADDTVAPSSTFCKVYTLTPFLANNREKRGLALDGKLKHEDTNLASSTLLREGANREILGIIVSYKVKVKLVVSRGGLLGDLASSDVAVELPFTLMHPKPKEEPPHREVPENETPVDTNLIELDTNDDDIVFEDFARQRLKGMKDDKEEEEDGTGSPQLNNR			5.1	470	19.5
